The values below come from patent US20160289284.

In the data set the test system is ZF6-DBD (AAV8-CMV delivered) (artificial (designed)). Nature of the data set: cell_activity. The settings on record: pig retina, rhodopsin transcript by qRT-PCR, 15 days after AAV8 injection. (In general: In qPCR the cycle at which signal appears reflects the starting amount.)

Consider “porcine RHO proximal promoter / TSS region”, for which the activity was determined as 45 % repression.
